Where no end group is shown, it is not given here. [ ]: non-standard residue; d: D form. Cit = NC(=O)NCCC[C@H](N)C(=O)O
Experiments:
Assay in all cases: SPR, peptide on CAP chip, 1:1 fit
[1] = biological target: T1, citrullinated human fibrinogen residues 36-52 (cit-fib) (human, also: biotinylated, place not given here)
T1 construct: Biotinylated peptide on streptavidin plates (ELISA) or CAP chip (SPR); also called Fib36-52; cit fibrinogen
T1 peptide: NEEGFFSA[Cit]GHRPLDKK

[2] = biological target: T2, citrullinated human vimentin residues 60-75 (cit-vim) (human, also: biotinylated, place not given here)
T2 construct: Biotinylated peptide on streptavidin plates (ELISA) or CAP chip (SPR); also called Vim60-75; cit vimentin
T2 peptide: VYAT[Cit]SSAV[Cit]L[Cit]SSVP

[3] = biological target: T3, citrullinated human enolase peptide 1 (CEP-1) (human, cysteine pairing not given here; also: biotinylated form used in SPR, place not given here)
T3 construct: Coated directly on plates in ELISA; biotinylated and captured on a CAP chip in SPR; also called cit a-enolase; citrullinated alpha-enolase peptide 1
T3 peptide: CKIHA[Cit]EIFDS[Cit]GNPTVEC

B1: antibody A09 (antibody)
chain 1: KSRTEIHSRVCGGHRAQLQGQLALGRVNGYGDSTLEGRVVVNAPTKVDNPNRLQPLPWGLADPHPVVTIIPNGASRDSAGEGQGLRRLHQSW
chain 2: GPLSDLINDDFGGFAWVLLVPGDKSITHNITAACSAGDGDRLSRRPRHGGRLSQHRL
With B1 the Kd [1] was 160 nM, the koff [1] was 0.0291 s⁻¹ and the Kd [2] was 180 nM. It also gave a koff [2] of 0.0433 s⁻¹ and a koff [3] of 0.0429 s⁻¹.

— patent publication US20150056208A1 (VILARA, published 2015)
